Patent US20200040083A1
Where “and” joins values, the source holds several entries; their conditions need not be identical. Equal values may be shown once.

Target: IL-2Rβ (R&D Systems, Minneapolis, Minn.) (UniProt P14784)
Test: Octet (BLI), AHC capture
Settings: Fc fusion

IL-2Rβ (R&D Systems, Minneapolis, Minn.), sequence (P14784 27-240): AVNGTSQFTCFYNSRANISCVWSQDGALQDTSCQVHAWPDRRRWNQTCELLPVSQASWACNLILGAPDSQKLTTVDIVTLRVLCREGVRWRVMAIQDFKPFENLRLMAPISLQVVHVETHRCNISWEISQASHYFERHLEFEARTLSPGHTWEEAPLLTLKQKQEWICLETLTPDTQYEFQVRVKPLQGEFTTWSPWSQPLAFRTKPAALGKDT

| Substance | Kd |
| --- | --- |
| XENP21478 (from UniProt P0DOX5 218-449) | 6.76 nM and 3 nM |
| XENP21479 (from UniProt P0DOX5 218-449; P40933 49-162) | 3.06 nM and 3 nM |
